Reference: paper PMC12463012, “Sequence‐ and Docking‐Site‐Dependent Contributions to Multi‐Site Phosphorylation of an Intrinsically Disordered MAPK Substrate” (Advanced Science, 2025)

Target: the molecule itself
Test: SEC-MALS; SEC-MALLS at 4 °C; 20 µL of JIP1^SH3 at 5.6 mg mL^-1 injected at 0.5 mL min^-1 on Superdex 200 10/300 GL in 50 mM HEPES pH 7.1, 150 mM NaCl, 2 mM DTT

B1: JIP1^SH3 (JIP1 IDR residues 1–450 linked to the SH3 domain of JIP1, residues 489–553, via a (GS)3G linker) (domain or fragment)
chain: GHMMAERESGGLGGGAASPPAASPFLGLHIASPPNFRLTHDISLEEFEDEDLSEITDECGISLQCKDTLSLRPPRAGLLSAGGGGAGSRLQAEMLQMDLIDATGDTPGAEDDEEDDDEERAARRPGAGPPKAESGQEPASRGQGQSQGQSQGPGSGDTYRPKRPTTLNLFPQVPRSQDTLNNNSLGKKHSWQDRVSRSSSPLKTGEQTPPHEHICLSDELPPQSGPAPTTDRGTSTDSPCRRSTATQMAPPGGPPAAPPGGRGHSHRDRIHYQADVRLEATEEIYLTPVQRPPDAAEPTSAFLPPTESRMSVSSDPDPAAYPSTAGRPHPSISEEEEGFDCLSSPERAEPPGGGWRGSLGEPPPPPRASLSSDTSALSYDSVKYTLVVDEHAQLELVSLRPCFGDYSDESDSATVYDNCASVSSPYESAIGEEYEEAPRPQPPACLSEDSTPDGSGSGSGQEQTHRAIFRFVPRHEDELELEVDDPLLVELQAEDYWYEAYNMRTGARGVFPAYYAIEVTKEPEH
notes: extension left at the N-terminus after TEV cleavage; (GS)3G linker that replaces residues 451-488 of JIP1; Residues 451-488 of JIP1 replaced by the glycine-serine linker because they are prone to aggregation; also called JIP1^SH3 dimer; not shown: thioredoxin, N-terminal, cleaved; His6, N-terminal, cleaved
  stoichiometry N: 2
